Experimental data reported in patent publication US20080113383A1 (FIBRO GEN, published 2008).
Where no end group is shown, it is not given here.

Target: EGLN1
Assay: cell-based or functional assay

Binder | Activity (%)*
DTDLDLEASAPYIPADDDFQ [DTDLDLEASApYIPADDDFQ] | 29.6%
DTDLDNEALAPYIPADDDFQ (not fully specified; printed as DTDLDNEALApYIPADDDFQ) [DTDLDNEALApYIPADDDFQ] | 27.1%
DTDLDLEALAPYIPADDDFQ [DTDLDLEALApYIPADDDFQ] | 102%
DTDLDIEANAPYIPADDDFQ [DTDLDIEANApYIPADDDFQ] | 33.2%
DTDLDVEALAPYIPADDDFQ (not fully specified; printed as DTDLDVEALApYIPADDDFQ) [DTDLDVEALApYIPADDDFQ] | 31.5%
DTDLDTEAYAPYIPADDDFQ (not fully specified; printed as DTDLDTEAYApYIPADDDFQ) [DTDLDTEAYApYIPADDDFQ] | 24.1%
DTDLDAEAIAPYIPADDDFQ [DTDLDAEAIApYIPADDDFQ] | 31.3%
DTDLDTEAFAPYIPADDDFQ (not fully specified; printed as DTDLDTEAFApYIPADDDFQ) [DTDLDTEAFApYIPADDDFQ] | 22.2%
DTDLDLEAQAPYIPADDDFQ [DTDLDLEAQApYIPADDDFQ] | 23.4%
DTDLDYEALAPYIPADDDFQ (not fully specified; printed as DTDLDYEALApYIPADDDFQ) [DTDLDYEALApYIPADDDFQ] | 94.2%
DTDLDHEALAPYIPADDDFQ [DTDLDHEALApYIPADDDFQ] | 23.4%
DTDLDIEAVAPYIPADDDFQ [DTDLDIEAVApYIPADDDFQ] | 23.9%
DTDLDVEAVAPYIPADDDFQ (not fully specified; printed as DTDLDVEAVApYIPADDDFQ) [DTDLDVEAVApYIPADDDFQ] | 22.8%
DTDLDTEAIAPYIPADDDFQ (not fully specified; printed as DTDLDTEAIApYIPADDDFQ) [DTDLDTEAIApYIPADDDFQ] | 23.7%

Target: EGLN2
Assay: cell-based or functional assay

Binder | Activity (%)*
DTDLDLEASAPYIPADDDFQ [DTDLDLEASApYIPADDDFQ] | 31.6%
DTDLDNEALAPYIPADDDFQ (not fully specified; printed as DTDLDNEALApYIPADDDFQ) [DTDLDNEALApYIPADDDFQ] | 21.4%
DTDLDLEALAPYIPADDDFQ [DTDLDLEALApYIPADDDFQ] | 102%
DTDLDIEANAPYIPADDDFQ [DTDLDIEANApYIPADDDFQ] | 34.4%
DTDLDVEALAPYIPADDDFQ (not fully specified; printed as DTDLDVEALApYIPADDDFQ) [DTDLDVEALApYIPADDDFQ] | 29%
DTDLDTEAYAPYIPADDDFQ (not fully specified; printed as DTDLDTEAYApYIPADDDFQ) [DTDLDTEAYApYIPADDDFQ] | 25.6%
DTDLDAEAIAPYIPADDDFQ [DTDLDAEAIApYIPADDDFQ] | 24%
DTDLDTEAFAPYIPADDDFQ (not fully specified; printed as DTDLDTEAFApYIPADDDFQ) [DTDLDTEAFApYIPADDDFQ] | 28.5%
DTDLDLEAQAPYIPADDDFQ [DTDLDLEAQApYIPADDDFQ] | 19.1%
DTDLDYEALAPYIPADDDFQ (not fully specified; printed as DTDLDYEALApYIPADDDFQ) [DTDLDYEALApYIPADDDFQ] | 108%
DTDLDHEALAPYIPADDDFQ [DTDLDHEALApYIPADDDFQ] | 21.5%
DTDLDIEAVAPYIPADDDFQ [DTDLDIEAVApYIPADDDFQ] | 23.8%
DTDLDVEAVAPYIPADDDFQ (not fully specified; printed as DTDLDVEAVApYIPADDDFQ) [DTDLDVEAVApYIPADDDFQ] | 16.6%
DTDLDTEAIAPYIPADDDFQ (not fully specified; printed as DTDLDTEAIApYIPADDDFQ) [DTDLDTEAIApYIPADDDFQ] | 25.3%

Target: EGLN3
Assay: cell-based or functional assay

Binder | Activity (%)*
DTDLDLEASAPYIPADDDFQ [DTDLDLEASApYIPADDDFQ] | 25.1%
DTDLDNEALAPYIPADDDFQ (not fully specified; printed as DTDLDNEALApYIPADDDFQ) [DTDLDNEALApYIPADDDFQ] | 57.6%
DTDLDLEALAPYIPADDDFQ [DTDLDLEALApYIPADDDFQ] | 119%
DTDLDIEANAPYIPADDDFQ [DTDLDIEANApYIPADDDFQ] | 30.4%
DTDLDVEALAPYIPADDDFQ (not fully specified; printed as DTDLDVEALApYIPADDDFQ) [DTDLDVEALApYIPADDDFQ] | 115%
DTDLDTEAYAPYIPADDDFQ (not fully specified; printed as DTDLDTEAYApYIPADDDFQ) [DTDLDTEAYApYIPADDDFQ] | 36%
DTDLDAEAIAPYIPADDDFQ [DTDLDAEAIApYIPADDDFQ] | 25.7%
DTDLDTEAFAPYIPADDDFQ (not fully specified; printed as DTDLDTEAFApYIPADDDFQ) [DTDLDTEAFApYIPADDDFQ] | 24.1%
DTDLDLEAQAPYIPADDDFQ [DTDLDLEAQApYIPADDDFQ] | 39.4%
DTDLDYEALAPYIPADDDFQ (not fully specified; printed as DTDLDYEALApYIPADDDFQ) [DTDLDYEALApYIPADDDFQ] | 136%
DTDLDHEALAPYIPADDDFQ [DTDLDHEALApYIPADDDFQ] | 55.8%
DTDLDIEAVAPYIPADDDFQ [DTDLDIEAVApYIPADDDFQ] | 61.3%
DTDLDVEAVAPYIPADDDFQ (not fully specified; printed as DTDLDVEAVApYIPADDDFQ) [DTDLDVEAVApYIPADDDFQ] | 49%
DTDLDTEAIAPYIPADDDFQ (not fully specified; printed as DTDLDTEAIApYIPADDDFQ) [DTDLDTEAIApYIPADDDFQ] | 19%
